{
  "source": "patent US20200240995A1",
  "about": "“KDAC VARIANTS AND USES THEREOF” (Max-Planck-Gesellschaft Zur Forderung Der Wissenschaften …, priority 2017, published 2020)",
  "molecules": {"B1": {"name": "Debocylase-1: E. coli CobB mutant I131V V148L (protein)", "chain": "KPRVLVLTGAGISAESGIRTFRAADGLWEEHRVEDVATPEGFDRDPELVQAFYNARRRQLQQPEIQPNAAHLALAKLQDALGDRFLLVTQNVDNLHERAGNTNVIHMHGELLKVRCSQSGQVLDWTGDVTPEDKCHCCQFPAPLRPHLVWFGEMPLGMDEIYMALSMADIFIAIGTSGHVYPAAGFVHEAKLHGAHTVELNLEPSQVGNEFAEKYYGPASQVVPEFVEKLLKGLKAGSIA", "modifications": "Debocylase-1", "notes": "E. coli CobB mutant I131V V148L"}, "B2": {"name": "Decrotonylase-1: E. coli CobB mutant A37R Y53G R56T I92R V148L (protein)", "chain": "B1 chain with A37R, Y53G, R56T, V92R", "modifications": "Decrotonylase-1", "notes": "E. coli CobB mutant A37R Y53G R56T I92R V148L"}, "B3": {"name": "Dealocase-1: E. coli CobB mutant A37S Y53W R56W I92V (protein)", "chain": "B1 chain with A37S, Y53W, R56W, L148V", "modifications": "Dealocase-1", "notes": "E. coli CobB mutant A37S Y53W R56W I92V"}, "B4": {"name": "Dealocase-2: E. coli CobB mutant A37G R56G I92V (protein)", "chain": "B1 chain with A37G, R56G, L148V", "modifications": "Dealocase-2", "notes": "E. coli CobB mutant A37G R56G I92V"}, "B5": {"name": "Dealocase-3: E. coli CobB mutant I131S V148L (protein)", "chain": "B1 chain with V92S", "modifications": "Dealocase-3", "notes": "E. coli CobB mutant I131S V148L"}},
  "note": "Where a chain is given by its changes, count along the chain named. Names may count otherwise.",
  "data": [
    {"test_system": "Firefly luciferase modified at K529", "assay": "Dual luciferase reporter (DLR) assay in E. coli whole cell lysates", "format": "cell-based", "details": "AcK at K529; normalized to Renilla luciferase, relative to wild-type CobB", "procedure": "(§1) FIG. 3: Evolved CobB variants can activate Firefly luciferase modified at K529. Dual luciferase reporter (DLR) assays were performed with E. coli producing DLR with the indicated modification of K529 in the Firefly enzyme. Activities were normalized to genetically fused Renilla luciferase and plotted relative to the activity observed for wild-type CobB on the same substrate. A) CobB mutant able to discriminate crotonyl-over acetyl-lysine. B) CobB mutants active against protected forms of lysine.\n(§2) The mutants isolated in the selections were tested using Firefly dual luciferase assays. E. coli DH10B ΔpyrF ΔcobB were transformed with plasmids expressing Firefly luciferase with the relevant modification on lysine-529 and the cobB mutants. Luciferase activity was tested directly in whole cell lysates and compared to the activity of wild-type cobB towards the modifications. The activities observed for the evolved KDAC variants correlated well with the activities observed in the uracil selections (FIG. 3).", "values": [
      {"molecule": "B1", "DLR activity [rel. to wild-type], AcK": "1.25 rel. to wild-type"},
      {"molecule": "B2", "DLR activity [rel. to wild-type], AcK": "0.00 rel. to wild-type"},
      {"molecule": "B3", "DLR activity [rel. to wild-type], AcK": "0.49 rel. to wild-type"},
      {"molecule": "B4", "DLR activity [rel. to wild-type], AcK": "1.19 rel. to wild-type"},
      {"molecule": "B5", "DLR activity [rel. to wild-type], AcK": "0.35 rel. to wild-type"}
    ]},
    {"test_system": "Firefly luciferase modified at K529", "assay": "Dual luciferase reporter (DLR) assay in E. coli whole cell lysates", "format": "cell-based", "details": "AlocK at K529; normalized to Renilla luciferase, relative to wild-type CobB", "procedure": "as §1, §2", "values": [
      {"molecule": "B1", "DLR activity [rel. to wild-type], AlocK": "8.35 rel. to wild-type"},
      {"molecule": "B2", "DLR activity [rel. to wild-type], AlocK": "0.02 rel. to wild-type"},
      {"molecule": "B3", "DLR activity [rel. to wild-type], AlocK": "10.83 rel. to wild-type"},
      {"molecule": "B4", "DLR activity [rel. to wild-type], AlocK": "10.23 rel. to wild-type"},
      {"molecule": "B5", "DLR activity [rel. to wild-type], AlocK": "6.00 rel. to wild-type"}
    ]},
    {"test_system": "Firefly luciferase modified at K529", "assay": "Dual luciferase reporter (DLR) assay in E. coli whole cell lysates", "format": "cell-based", "details": "BocK at K529; normalized to Renilla luciferase, relative to wild-type CobB", "procedure": "as §1, §2", "values": [
      {"molecule": "B1", "DLR activity [rel. to wild-type], BocK": "8.65 rel. to wild-type"},
      {"molecule": "B2", "DLR activity [rel. to wild-type], BocK": "0.04 rel. to wild-type"},
      {"molecule": "B3", "DLR activity [rel. to wild-type], BocK": "2.88 rel. to wild-type"},
      {"molecule": "B4", "DLR activity [rel. to wild-type], BocK": "0.77 rel. to wild-type"},
      {"molecule": "B5", "DLR activity [rel. to wild-type], BocK": "0.65 rel. to wild-type"}
    ]},
    {"test_system": "Firefly luciferase modified at K529", "assay": "Dual luciferase reporter (DLR) assay in E. coli whole cell lysates", "format": "cell-based", "details": "CrK at K529; normalized to Renilla luciferase, relative to wild-type CobB", "procedure": "as §1, §2", "values": [
      {"molecule": "B1", "DLR activity [rel. to wild-type], CrK": "2.90 rel. to wild-type"},
      {"molecule": "B2", "DLR activity [rel. to wild-type], CrK": "0.10 rel. to wild-type"},
      {"molecule": "B3", "DLR activity [rel. to wild-type], CrK": "5.73 rel. to wild-type"},
      {"molecule": "B4", "DLR activity [rel. to wild-type], CrK": "2.11 rel. to wild-type"},
      {"molecule": "B5", "DLR activity [rel. to wild-type], CrK": "1.00 rel. to wild-type"}
    ]}
  ]
}
